Data published in patent publication US20220315554A1, “COMPOUNDS COMPRISING A […] LIGAND AND USE THEREOF” (priority 2019, published 2022).

Key:
[1] = target: T1, Recombinant human FAP (R&D systems, #3715-SE) (human)
T1 sequence: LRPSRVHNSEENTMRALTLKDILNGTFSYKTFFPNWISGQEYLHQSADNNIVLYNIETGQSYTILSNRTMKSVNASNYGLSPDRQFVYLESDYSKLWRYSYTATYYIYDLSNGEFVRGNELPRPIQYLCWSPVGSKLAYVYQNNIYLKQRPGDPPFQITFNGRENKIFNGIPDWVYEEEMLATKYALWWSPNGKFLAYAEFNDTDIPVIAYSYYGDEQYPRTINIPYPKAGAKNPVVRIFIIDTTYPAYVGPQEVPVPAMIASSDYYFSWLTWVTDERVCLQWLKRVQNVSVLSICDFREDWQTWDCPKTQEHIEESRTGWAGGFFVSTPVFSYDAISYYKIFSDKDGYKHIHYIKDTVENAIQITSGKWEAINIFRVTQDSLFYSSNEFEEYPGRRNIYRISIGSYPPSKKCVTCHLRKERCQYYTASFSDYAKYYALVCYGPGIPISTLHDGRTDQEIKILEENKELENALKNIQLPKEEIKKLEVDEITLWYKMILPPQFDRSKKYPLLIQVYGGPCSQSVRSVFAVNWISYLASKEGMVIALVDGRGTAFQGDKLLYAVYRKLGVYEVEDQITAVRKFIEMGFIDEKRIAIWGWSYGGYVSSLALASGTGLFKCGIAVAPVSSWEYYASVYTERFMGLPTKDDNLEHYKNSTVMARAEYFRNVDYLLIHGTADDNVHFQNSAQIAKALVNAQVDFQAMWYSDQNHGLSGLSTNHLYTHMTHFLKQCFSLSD

[2] = target: human fibroblast activation protein (FAP) on FAP-expressing human WI-38 fibroblasts (human); assay: competition FACS, WI-38 cells, vs Cy5-labeled compound; A: pIC50 >8.0

Substance	pIC50 Category (Activity) [1] [pIC50]	pIC50 Category (FACS) [2] [pIC50]
DOTA-Ttds-Nle-[Cys(3MeBn)-Pro-Pro-Thr-Glu-Phe-Cys]-Asp-Pamb-Arg-NH2 (peptide)	> 8	> 8
Hex-[Cys(3MeBn)-Pro-Pro-Thr-Glu-Phe-Cys]-Asp-His-Nmf-Arg-Ttds-Lys(DOTA)-NH2 (peptide)	> 8	> 8
H-Met-[Cys(3MeBn)-Pro-Pro-Thr-Glu-Phe-Cys]-Asp-His-Phe-Arg-Asp-Ttds-Lys(Bio)-NH2 (peptide)	> 8	> 8
Hex-[Cys(3MeBn)-Pro-Pro-Thr-Gln-Phe-Cys]-Asp-Ttds-Lys(DOTA)-NH2 (peptide)	> 8	> 8
Hex-[Cys(3MeBn)-Pro-Pro-Thr-Glu-Phe-Cys]-Asp-His-phe-Arg-Ttds-Lys(DOTA)-NH2 (peptide)	> 8	> 8
Hex-[Cys(3MeBn)-Pro-Pro-Thr-Glu-Phe-Cys]-Pamb-Arg-NH2 (peptide)	> 8	
Hex-[Cys(3MeBn)-Pro-Pro-Thr-Glu-Phe-Cys]-Asp-His-Ppa-arg-Ttds-Lys(DOTA)-NH2 (peptide)	> 8	> 8
Ac-Met-[Cys(3MeBn)-Pro-Pro-Thr-Glu-Phe-Cys]-Asp-His-Nmf-Arg-Asp-NH2 (peptide)	> 8	> 8
DOTA-Ttds-Nle-[Cys(3MeBn)-Pro-Pro-Thr-Glu-Phe-Cys]-Asp-His-Phe-Arg-Asp-NH2 (peptide)	> 8	> 8
Hex-[Cys(tMeBn(DOTA-AET))-Pro-Pro-Thr-Gln-Mpa-Cys]-OH (peptide)	> 8	> 8
Hex-[Cys(tMeBn(DOTA-AET))-Pro-Pro-Thr-Gln-Phe-Cys]-Nmg-OH (peptide)	> 8	> 8
Ac-Met-[Cys(3MeBn)-Pro-Pro-Thr-Glu-Thi-Cys]-Asp-His-Phe-Arg-Asp-NH2 (peptide)	> 8	> 8
Hex-[Cys(3MeBn)-Pro-Pro-Thr-Glu-Phe-Cys]-Asp-Arg-NH2 (peptide)	> 8	> 8
Hex-[Cys(3MeBn)-Pro-Pro-Thr-Glu-Phe-Cys]-Asp-Cmp-Arg-NH2 (peptide)	> 8	> 8
Ac-Met-[cys(3MeBn)-Pro-Pro-Thr-Glu-Phe-Cys]-Asp-His-Phe-Arg-Asp-NH2 (peptide)	> 8	> 8
Hex-[Cys(3MeBn)-Pro-Pro-Thr-Gln-Otf-Cys]-NH2 (peptide)	> 8	
Ac-met-[Cys(3MeBn)-Pro-Pro-Thr-Glu-Phe-Cys]-Asp-His-Phe-Arg-Asp-NH2 (peptide)	> 8	> 8
Hex-[Cys(3MeBn)-Pro-Pro-Thr-Glu-Phe-Cys]-Asp-His-Phe-Arg-Asp-Ttds-Lys(DOTA)-NH2 (peptide)	> 8	> 8
Ac-Met-[Cys(3MeBn)-Pro-Pro-Thr-Glu-Phe-Cys]-Asp-his-Phe-Arg-Asp-NH2 (peptide)	> 8	> 8
Hex-[Cys(tMeBn(DOTA-AET))-Pro-Pro-Thr-Gln-Phe-Cys]-Bal-OH (peptide)	> 8	> 8
Ac-Met-[Cys(3MeBn)-Pro-Pro-Thr-Glu-Phe-Cys]-Asp-His-Phe-Arg-NH2 (peptide)	> 8	> 8
Hex-[Cys(tMeBn(DOTA-AET))-Pro-Pro-Thr-Gln-1Ni-Cys]-OH (peptide)	> 8	> 8
Ac-Met-[Cys(3MeBn)-Pro-Pro-Thr-Glu-Phe-Cys]-Asp-His-Aic-Arg-Asp-NH2 (peptide)	> 8	> 8
Hex-[Cys(3MeBn)-Pro-Pro-Thr-Gln-Phe-Cys]-Bhk(DOTA)-OH (peptide)	> 8	> 8
Ac-Met-[Cys(3MeBn)-Pro-Pro-Thr-Glu-Phe-Cys]-Asp-His-Phe-arg-Asp-NH2 (peptide)	> 8	> 8
Ac-Met-[Cys(3MeBn)-Gly-Pro-Thr-Glu-Phe-Cys]-Asp-His-Phe-Arg-Asp-NH2 (peptide)	> 8	> 8
Hex-[Cys(3MeBn)-Pro-Pro-Thr-Gln-Phe-Cys]-Bhk(DOTA-Ttds)-OH (peptide)	> 8	> 8
